From patent publication US20140329787A1, “PHYTOPHTHORA PHOSPHOLIPASE C” (Deakin University, priority 2011, published 2014)
“Also recorded” adds a separate entry of the source.

Columns and labels:
[1] = Hydrolysis of PIPx, neutral-lipid TLC; format: biochemical; conditions: 0.2 mg/ml enzyme
Experimental: Lipid samples of 0.5 μl were applied to silica 60 TLC plates and allowed to dry prior to the addition of more sample. Neutral lipids were applied to 10×20 cm pre-absorption zone-bearing silica-60 plates (Sigma-Aldrich, USA) and resolved in a solvent mixture of hexane:diethyl ether:acetic acid (9:1:0.5). Phospholipids were resolved on 20×20 cm silica-60 plates (Merck, Australia), without a pre-absorption zone, in a solvent mixture of chloroform:methanol:acetic acid:water (90:40:12:2). Lipids were detected by spraying the dried TLC plates with a solution of 0.05% rhodamine B (Sigma) in methanol and destaining was performed by repeated spraying with 5 M KOH. Lipid spots were then visualised following UV excitation at 312 nm.
Alt-PLC and Alt-PLC2 were refolded into buffer A4 at a concentration of 0.2 mg/ml and a hydrolysis reaction was performed using PIPx (mixed phosphatidylinositols, Sigma) as the substrate. The reaction was performed as described previously and the resultant neutral lipids were extracted by diethyl ether phase extraction. The samples were analysed by neutral-lipid thin-layer chromatography, on silica 60 plates with a pre-absorption zone; the mobile phase employed was hexane: diethyl ether: acetic acid (9:1:0.5).

E. coli = test: Growth curves of E. coli expressing Alt-PLC and truncations; format: cell-based; conditions: relative to E. coli not expressing Alt-PLC
Experimental: An analysis of function of the Alt-PLC truncations was performed using growth curves of Alt-PLC expressing E. coli cells (FIG. 28).
Therefore, growth curves of E. coli expressing Alt-PLC and the truncations allow determination of Alt-PLC function in vivo.

B1: Alt-PLC2: Phytophthora sojae Alt-PLC with the additional 35aa fragment in the RAS-GEF domain, SEQ ID NO: 14 (protein, listed as Phytophthora sojae)
chain: MASGWRQKPRLDPWDPPSPPPLLEEAAPKPKPKTSRFSRRSTRAKSHARQQAQHVELEREKAFRLVRHGSDPLLNDAFYATQVQVGNFVKMGWLTKQGHMWKSWKTRFFVLFSDGTFAYYKNKGRKKIKGCMQLNDGVVSVQHVDIRLADKAYVFQIEKGFYKLLCYCCSQFEAELWVAALRSVRRVAPPCYEMDLTATEEKAGSNAVTRHLNKIFITDKQIAKRLAEFKANTHDHSYAAIHNFIVELDDAIIDRHHLEFYQDAEIELLPGNELVRLIRRHVEDRVFIPLYAEAYASLETDKVKTRRSNLEQHLKVLKQKTQADFGISKDLSVCNWKQAISVVNMLDCVSLPTHKFEVILSAGKAIMELIAQYNGELFEVSDEMLTAIFRYVVTMSSLSDLPTLRALLKYGYQHHPASQNKANVVTAFLNAIKWVECFEAGDESYQFDSLALAGSRVSVSISTNDVGIQFTTDGNGRGAIVYNIRKQSQAALSAAIVPGLSLIAINHEPVIGMPFDKIIQRVRTAALPKQLTFMTEFYYYQLLSLDSEMYQYLMCIAARRGDLDSAAWMRSSTIELNTLCSWEKSRGKQVFGFTPVSGKGSPLHAAVHNGQLSMVNYLISRGADVNLCNQKGRRPLHVVKQSIDMAMIIQSLIDAGADIDAMEKHGLTPLMFMCSRASLEGSATLLALGADVHCVAWTNGFSALEFAVKSEHTELVELCLSKGANPNAPTLDGNTSLHLAATQANTDIILRLLQGGANPNVQNRYGQTPAALLLASSPGGSSDVRILCLEILTCAGCRLDKRDLFGRQASHLASISRDSHVVDLLRKLGSLNREANGVEIDIFGCSSVDYSHRIEVDKSASYLGSQMPNSSWKMVDKDDHVSRSARPGSVDDLIRELVAGTEVDLVDVVSFVLFLDSFSSLNEVVDRLSAHVRNGVKSHGLIRLFIVVLLFRQSETKEADDLRDRFYSLISLNIDAKDKLEYFSLRGAGNYAVNYQAIPGMMSKVYGMESGFEPVSSGPFSAHLHRFVDAERWAEQCTLLTHAVFCKIPVRDFIPTGSKKKHSVEFTSIKRWFQHISAFVINAVLVQNTPEERAEVISFYLKVADYCISLHNHDTLASILYALQSTAVQRLRKTIDCLSLDAKKMMNEMQLLSDKGCREMNRLMRKTANPSMPYIGLYLQGFVGLNELPAFDKEGLVNANRLRRMGELAMEILHRQSVAYTLQHDEDVNKLLHVSLPYSSEESRYARSLELEPREADAIPLSDRGSYTLIDDDVDLENEVRESIGGDGTFGFRQWIRKQQVVHRNRSRSSVIALY
monoacylglycerol production / phospholipase C activity level in vitro [1]: detection of monoacylglycerol production
growth of expressing E. coli (function in vivo) (E. coli): same reduced growth rate shown by cells expressing Alt-PLC1

B2: t2: truncated Phytophthora sojae Alt-PLC1, SEQ ID NO: 18 (protein)
chain: YQFDSLALAGSRVSVSISTNDVGIQFTTDGNGRGAIVYNIRKQSQAALSAAIVPGLSLIAINHEPVIALEFAVKIDYSHRIEVDKSASYLGSQMPNSSWKMVDKDDHVSRSARPGSVDDLIRELVAGTEVDLVDVVSFVLFLDSFSSLNEVVDRLSAHVRNGVKSHGLIRLFIVVLLFRQSETKEADDLRDRFYSLISLNIDAKDKLVPLVEEYMSLYKEYFSLRGAGNYAVNYQAIPGMMSKVYGMESGFEPVSSGPFSAHLHRFVHPFIQRNHAATATVTMHHLLFTNPLTKAKGAIAANAFTHFVFQIHIIINQGIAATIAQRNRIRFTRFQFQATRITAFFAAIRQAHMQQFVHIFIMLQGIRHALTMQNFHRQFAHTTQTVRVHQAFFIKRRQFVQAHKALQIQANIRHARVRGFTHQTVHFTAAFIAQQLHFVHHFLCIQAQFQ
modifications: Derived from Phytophthora sojae
growth of expressing E. coli (function in vivo) (E. coli): reduced growth of E. coli

B3: t3: truncated Phytophthora sojae Alt-PLC1, SEQ ID NO: 19 (protein)
chain: YQFDSLALAGSRVSVSISTNDVGIQFTTDGNGRGAIVYNIRKQSQAALSAAIVPGLSLIAINHEPVIALEFAVKIDYSHRIEVDKSASYLGSQMPNSSWKMVDKDDHVSRSARPGSVDDLIRELVAGTEVDLVDVVSFVLFLDSFSSLNEVVDRLSAHVRNGVKSHGLIRLFIVVLLFRQSETKEADDLRDRFYSLISLNIDAKDKLVPLVEEYMSLYKEYFSLRGAGNYAVNYQAIPGMMSKVYGMESGFEPVSSGPFSAHLHRFVHPFIQRNHAATATVTMHHLLFTNPLTKAKGAIAANAFTHFVFQIHIIINQGIAATIAQRNRIRFTRFQFQATRITAFFAAIRQAHMQQFVHIFIMLQGIRHALTMQNFHRQFAHTTQTVRVHQAFFIKRRQFVQAHKALQIQANIRHARVRGFTHQTVHFTAAFIAQQLHFVHHFLCIQAQFQIKANHFRTFFRGVLHQHRVNHKRANMLKPTFNAGKFHAMLFLATGRNKITHRNFAKHRMGQQGALFRPTFRI
modifications: Derived from Phytophthora sojae
growth of expressing E. coli (function in vivo) (E. coli): reduced growth of E. coli; also recorded: significantly higher lethality

B4: t1: truncated Phytophthora sojae Alt-PLC1, SEQ ID NO: 17 (protein)
chain: YQFDSLALAGSRVSVSISTNDVGIQFTTDGNGRGAIVYNIRKQSQAALSAAIVPGLSLIAINHEPVIALEFAVKIDYSHRIEVDKSASYLGSQMPNSSWKMVDKDDHVSRSARPGSVDDLIRELVAGTEVDLVDVVSFVLFLDSFSSLNEVVDRLSAHVRNGVKSHGLIRLFIVVLLFRQSETKEADDLRDRFYSLISLNIDAKDKLVPLVEEYMSLYKEYFSLRGAGNYAVNYQAIPGMMSKVYGMESGFEPVSSGPFSAHLHRFV
modifications: Derived from Phytophthora sojae
growth of expressing E. coli (function in vivo) (E. coli): reduced growth of E. coli
